The experiment deals with Growth differentiation factor 11 (GDF11) (human) (UniProt O95390). Put plainly: cell-based or functional assay.
UniProt O95390, sequence (O95390 299-407 limits assumed): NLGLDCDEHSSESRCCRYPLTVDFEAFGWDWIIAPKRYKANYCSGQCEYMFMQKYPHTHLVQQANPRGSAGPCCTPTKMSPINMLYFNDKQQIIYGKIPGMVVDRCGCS

“anti-human GDF11 antibody ab71347 (Abcam)” had an apoptosis in primary AML blasts, subjects 5 and 6 of 50 % apoptosis.

For the origin of these results see US20180031579A1.
